From patent US20240034814A1 (JANUX THERAPEUTICS, published 2024)
Changes are numbered by the printed parent chain.

Columns and labels:
[1] = target: T1, TROP2 on NCI-H292 tumor cells (UniProt P09758 27-274); assay: cell-based or functional assay
T1 sequence (looked up): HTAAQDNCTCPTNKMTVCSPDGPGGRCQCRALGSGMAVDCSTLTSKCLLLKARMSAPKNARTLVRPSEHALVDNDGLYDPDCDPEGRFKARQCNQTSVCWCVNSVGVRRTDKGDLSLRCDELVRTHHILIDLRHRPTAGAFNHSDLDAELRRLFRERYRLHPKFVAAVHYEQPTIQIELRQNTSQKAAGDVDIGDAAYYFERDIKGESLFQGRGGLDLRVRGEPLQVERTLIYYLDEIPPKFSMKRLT

[2] = target: T1, TROP2 on NCI-H292 tumor cells; assay: Trop2 binding ELISA (TROP2 as ELISA antigen, not on cells), polypeptide complex titrated, OD 450 nm
human serum albumin [3] = target: T2, human serum albumin (human, UniProt P02768 25-609); assay: ELISA, albumin coated plates, single domain antibody titrated, pH 5.5
T2 construct: also called HSA; HSA-biotin

[4] = target: T3, cynomolgus monkey serum albumin (cynomolgus monkey, UniProt A2V9Z4 25-608); assay: as above
T3 construct: Coated on ELISA plates; also called cyno albumin

human serum albumin [5] = target: T2, human serum albumin; assay: ELISA, albumin coated plates, single domain antibody titrated, pH 7.4
[6] = target: T3, cynomolgus monkey serum albumin; assay: as above
human serum albumin [7] = target: T2, human serum albumin; assay: BLI (Octet RED96), biotinylated HSA on streptavidin biosensors, HE-1 titrated 100-3.125 nM, pH 7.4, 1:1 fit
Mouse Albumin = target: T4, Mouse Albumin (mouse, UniProt P07724); assay: ELISA on an albumin coated plate, single domain antibody titrated, HRP secondary antibody, OD 450 nm
T4 construct: coated on the ELISA plate; not described further; also called mouse serum albumin

[8] = target: T3, cynomolgus monkey serum albumin; assay: as above
human serum albumin [9] = target: T2, human serum albumin; assay: as above
human serum albumin [10] = target: T2, human serum albumin; assay: BLI (Octet RED96), biotinylated HSA on streptavidin biosensors, HE-1 titrated 100-3.125 nM, association and dissociation at pH 5.5, 1:1 fit
human serum albumin [11] = target: T2, human serum albumin; assay: Octet, biotinylated human serum albumin on streptavidin biosensors, acidic buffer, association 1 (saturation using SDA)

T3 sequence (A2V9Z4 25-608 limits assumed): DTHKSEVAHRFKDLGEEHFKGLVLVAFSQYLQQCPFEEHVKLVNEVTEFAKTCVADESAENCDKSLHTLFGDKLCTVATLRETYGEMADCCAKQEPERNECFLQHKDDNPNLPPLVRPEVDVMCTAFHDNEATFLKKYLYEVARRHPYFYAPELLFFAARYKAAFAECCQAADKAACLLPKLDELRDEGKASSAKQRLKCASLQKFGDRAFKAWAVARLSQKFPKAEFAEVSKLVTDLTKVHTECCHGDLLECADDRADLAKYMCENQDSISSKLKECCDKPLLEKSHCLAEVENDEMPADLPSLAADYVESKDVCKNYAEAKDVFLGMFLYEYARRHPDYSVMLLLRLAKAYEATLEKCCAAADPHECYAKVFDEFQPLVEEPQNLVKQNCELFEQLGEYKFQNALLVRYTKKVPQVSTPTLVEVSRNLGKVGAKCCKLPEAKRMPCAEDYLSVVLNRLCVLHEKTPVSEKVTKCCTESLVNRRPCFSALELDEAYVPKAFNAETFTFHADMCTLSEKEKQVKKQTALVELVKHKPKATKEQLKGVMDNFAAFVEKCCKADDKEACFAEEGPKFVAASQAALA
T4 sequence (P07724 25-608 limits assumed): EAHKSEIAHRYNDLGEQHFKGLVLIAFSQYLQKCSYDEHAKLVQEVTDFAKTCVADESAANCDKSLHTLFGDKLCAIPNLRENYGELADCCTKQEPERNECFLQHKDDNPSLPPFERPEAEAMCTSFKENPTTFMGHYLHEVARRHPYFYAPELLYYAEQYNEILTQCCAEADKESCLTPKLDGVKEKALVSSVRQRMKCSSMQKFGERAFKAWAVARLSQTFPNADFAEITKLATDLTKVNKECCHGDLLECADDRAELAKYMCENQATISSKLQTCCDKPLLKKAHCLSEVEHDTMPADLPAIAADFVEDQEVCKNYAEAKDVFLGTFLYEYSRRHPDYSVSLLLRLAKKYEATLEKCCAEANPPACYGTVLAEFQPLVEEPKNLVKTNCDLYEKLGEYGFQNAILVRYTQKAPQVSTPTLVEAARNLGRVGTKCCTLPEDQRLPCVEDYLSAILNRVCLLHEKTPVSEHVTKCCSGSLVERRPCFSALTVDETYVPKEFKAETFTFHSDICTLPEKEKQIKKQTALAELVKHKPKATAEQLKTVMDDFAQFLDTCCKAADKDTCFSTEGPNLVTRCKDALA

B1: Polypeptide complex PC3 (bispecific antibody)
light: DIQLTQSPSSLSASVGDRVSITCKASQDVSIAVAWYQQKPGKAPKLLIYSASYRYTGVPDRFSGSGSGTDFTLTISSLQPEDFAVYYCQQHYITPLTFGAGTKVEIKRTVAAPSVFIFPPSDEQLKSGTASVVCLLNNFYPREAKVQWKVDNALQSGNSQESVTEQDSKDSTYSLSSTLTLSKADYEKHKVYACEVTHQGLSSPVTKSFNRGEC
heavy: QTVVTQEPSLTVSPGGTVTLTCRSSTGAVTTSNYANWVQQKPGQAPRGLIGGTNKRAPGTPARFSGSLLGGKAALTLSGVQPEDEAEYYCALWYSNLWVFGGGTKLTVLGGGGSGGGGSGGGGSEVQLVESGGGLVQPGGSLKLSCAASGFTFNTYAMNWVRQAPGKGLEWVARIRSKYNNYATYYADSVKDRFTISRDDSKNTAYLQMNNLKTEDTAVYYCVRHGNFGNSYVSWFAYWGQGTLVTVSSGGGGSQVQLQQSGSELKKPGASVKVSCKASGYTFTNYGMNWVKQAPGQGLKWMGWINTYTGEPTYTDDFKGRFAFSLDTSVSTAYLQISSLKADDTAVYFCARGGFGSSYWYFDVWGQGSLVTVSSASTKGPSVFPLAPSSKSTSGGTAALGCLVKDYFPEPVTVSWNSGALTSGVHTFPAVLQSSGLYSLSSVVTVPSSSLGTQTYICNVNHKPSNTKVDKKVEPKSC
notes: TROP2 and CD3 targeting regions (anti-CD3 scFv fused to the Fab heavy chain); No mask and no HE-1
[1]
  H292 IC50 (pM), 72 hours, tumor cell killing with CD8+ T cells: 0.88 pM
[2]
  EC50 (read off the curve): ~0.2 nM

B2: Polypeptide complex PC4 (bispecific antibody)
light: GGVDFCKIYSWPVCHQGGGGSGGLSGRSDAGSPLGLAGSGGSDIQLTQSPSSLSASVGDRVSITCKASQDVSIAVAWYQQKPGKAPKLLIYSASYRYTGVPDRFSGSGSGTDFTLTISSLQPEDFAVYYCQQHYITPLTFGAGTKVEIKRTVAAPSVFIFPPSDEQLKSGTASVVCLLNNFYPREAKVQWKVDNALQSGNSQESVTEQDSKDSTYSLSSTLTLSKADYEKHKVYACEVTHQGLSSPVTKSFNRGEC
heavy: not shown
[1]
  H292 IC50 (pM), 72 hours, tumor cell killing with CD8+ T cells: 4120 pM

B3: HE-1 anti-albumin (VHH)
VHH: EVQLVESGGGLVQPGGSLRLSCAASGSTFYTAVMGWVRQAPGKGLEWVAAIRWTALTTSYADSVKGRFTISRDGAKTTLYLQMNSLRPEDTAVYYCAARGTLGLFTTADSYDYWGQGTLVTVSS
notes: Single domain antibody; also called half-life extending single domain antibody
Human serum albumin [3]
  EC50: 0.9 nM
[4]
  EC50: 1.3 nM
Human serum albumin [5]
  EC50: 1 nM
[6]
  EC50: 1.3 nM
Human serum albumin [7]
  Kd: 5.98 nM
  koff: 0.00341 s⁻¹
  kon: 571000 M⁻¹ s⁻¹
Mouse Albumin
  binding result: binds
[8]
  EC50 (read off the curve): ~2 nM
Human serum albumin [9]
  EC50 (read off the curve): ~1 nM
Human serum albumin [10]
  Kd: 4.19 nM
  koff: 0.00186 s⁻¹
  kon: 444000 M⁻¹ s⁻¹

B4: HE-2 (VHH)
VHH: B3 VHH with S110H
notes: also called (HE-2) Anti-albumin
Human serum albumin [11]
  binding result: binds
